From patent US8043804

Sequence of acetylated p53, P04637 (P04637 whole entry, looked up): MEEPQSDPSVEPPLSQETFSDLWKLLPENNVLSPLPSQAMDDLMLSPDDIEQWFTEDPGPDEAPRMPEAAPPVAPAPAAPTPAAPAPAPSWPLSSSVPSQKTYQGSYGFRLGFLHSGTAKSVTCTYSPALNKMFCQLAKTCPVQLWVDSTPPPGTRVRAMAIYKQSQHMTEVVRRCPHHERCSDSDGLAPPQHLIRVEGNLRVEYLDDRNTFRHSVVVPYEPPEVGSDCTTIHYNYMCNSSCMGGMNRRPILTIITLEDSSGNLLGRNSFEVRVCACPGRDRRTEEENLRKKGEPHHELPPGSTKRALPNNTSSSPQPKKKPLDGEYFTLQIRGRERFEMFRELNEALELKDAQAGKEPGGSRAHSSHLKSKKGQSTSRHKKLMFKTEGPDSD

| Protein | in vitro deacetylation assay (acetylated tubulin) | in vitro deacetylation assay (Western blot for acetylated p53) (acetylated p53, P04637) |
| --- | --- | --- |
| Flag-SIRT2 (protein) MAEPDPSHPLETQAGKVQEAQDSDSDSEGGAAGGEADMDFLRNLFSQTLSLGSQKERLLDELTLEGVARYMQSERCRRVICLVGAGISTSAGIPDFRSPSTGLYDNLEKYHLPYPEAIFEISYFKKHPEPFFALAKELYPGQFKPTICHYFMRLLKDKGLLLRCYTQNIDTLERIAGLEQEDLVEAHGTFYTSHCVSASCRHEYPLSWMKEKIFSEVTPKCEDCQSLVKPDIVFFGESLPARFFSCMQSDFLKVDLLLVMGTSLQVQPFASLISKAPLSTPRLLINKEKAGQSDPFLGMIMGLGGGMDFDSKKAYRDVAWLGECDQGCLALAELLGWKKELEDLVRREHASIDAQSGAGVPNPSTSASPKKSPPPAKDEARTTEREKPQ | deacetylation of tubulin was observed when the purified SIRT2 protein was incubated with acetylated tubulin | – |
| Flag-SIRT1 (protein) MADEAALALQPGGSPSAAGADREAASSPAGEPLRKRPRRDGPGLERSPGEPGGAAPEREVPAAARGCPGAAAAALWREAEAEAAAAGGEQEAQATAAAGEGDNGPGLQGPSREPPLADNLYDEDDDDEGEEEEEAAAAAIGYRDNLLFGDEIITNGFHSCESDEEDRASHASSSDWTPRPRIGPYTFVQQHLMIGTDPRTILKDLLPETIPPPELDDMTLWQIVINILSEPPKRKKRKDINTIEDAVKLLQECKKIIVLTGAGVSVSCGIPDFRSRDGIYARLAVDFPDLPDPQAMFDIEYFRKDPRPFFKFAKEIYPGQFQPSLCHKFIALSDKEGKLLRNYTQNIDTLEQVAGIQRIIQCHGSFATASCLICKYKVDCEAVRGDIFNQVVPRCPRCPADEPLAIMKPEIVFFGENLPEQFHRAMKYDKDEVDLLIVIGSSLKVRPVALIPSSIPHEVPQILINREPLPHLHFDVELLGDCDVIINELCHRLGGEYAKLCCNPVKLSEITEKPPRTQKELAYLSELPPTPLHVSEDSSSPERTSPPDSSVIVTLLDQAAKSNDDLDVSESKGCMEEKPQEVQTSRNVESIAEQMENPDLKNVGSSTGEKNERTSVAGTVRKCWPNRVAKEQISRRLDGNQYLFLPPNRYIFHGAEVYSDSEDDVLSSSSCGSNSDSGTCQSPSLEEPMEDESEIEEFYNGLEDEPDVPERAGGAGFGTDGDDQEAINEAISVKQEVTDMNYPSNKS | – | deacetylation of p53 was observed when the Flag-SIRT1 protein was incubated with acetylated p53 |
